Laboratory results taken from the nanobody polyreactivity screen of Harvey et al. (2022).

Test: yeast display, Sf9 membrane polyspecificity reagent, FACS + sequencing; frameworks hold sequencing errors
Method in brief: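 A synthetic nanobody library was expressed on Saccharomyces cerevisiae BJ5465 by galactose induction for 36–48 hours. The library was stained for 1 hour at 4 °C with 10% biotinylated, detergent-solubilized Sf9 membrane reagent and enriched with streptavidin microbeads before FACS. Low and high (top ~1%) gates were set on anti-HA fluorescence for expression and streptavidin fluorescence for reagent binding, and each polyreactivity label reflects the gate of origin.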

QVQLVESGGGLVQAGGSLRLSCAASGSTFTHNGMGWYRQAPGKETELVASITWSGGSTYYAVSVKGRFTISRDNAKNTVYLQMNSLKPEDNAVYYCASDAKLYITGFDYWGQGTQVTVSS
polyreactivity (PSR sort gate): low polyreactivity

QVQLVESGGGLVQAGGSLRLSCAASGSTFTHYALGWYRQAPGKEMELVAAITRRGGSTYYADSVKGRFTISRDYAKNTVYLQMNRLKPEDTAVYYCAARSRYDQEYDYWGQATQVTVSS
polyreactivity (PSR sort gate): high polyreactivity

QVQLVESGGGLVQAGGSLRLSCAASGSTFTHYAMGWYRQAPGKERELVAAISSGGSTYYADSVKGRFTISRDNAKNTVYLQMNILKPEDTAVYYCASDYYWHDWWYPHDYWGQGTQVTLSS
polyreactivity (PSR sort gate): low polyreactivity

QVQLVESGGGLVQAGGSLRLSCAASGSTFTHYAMGWYRQAPGKERELVAAISWGGGTTRYADSVKGRFTISRDNAKNTVYLQMNSLKPEDTAVYYCAKRVRTGSVGNFNYWGQGTQVTVSS
polyreactivity (PSR sort gate): high polyreactivity

QVQLVESGGGLVQAGGSLRLSCAASGSTFTINFMGWYRQAPGKERELVAAINGGGRTNYADSVKGRFTISRDNAKNTVYLQMNSLNPEDTAVYYCAAEWRRYEYSDSWEYDYWGQGTQVTVSS
polyreactivity (PSR sort gate): low polyreactivity

QVQLVESGGGLVQAGGSLRLSCAASGSTFTINVMGWYRQAPGKERELVAAINCGGRTNYADSVKGRFTISRDNAKNTVYLQMNSLKPEDTAVYNCAADGRSNVRQMDYWGQGTQVTVSS
polyreactivity (PSR sort gate): low polyreactivity

QVQLVESGGGLVQAGGSLRLSCAASGSTFTKNAMGWYRQAPGKERELVADISFSGGSTYYADSVKGRFTISRDNAKNTVYLQTNRLKPEDTAVYDCAADRHRALPRFDDWGQGTQVTVAS
polyreactivity (PSR sort gate): low polyreactivity

QVQLVESGGGLVQAGGSLRLSCAASGSTFTLNTMGWYRQAPGKERELVAGIRSGGSTYYADSVKGRFTISRDNAKNTVYLQMHSLKPEDTAVYYCAADRRWFAYWFDYWGQGTQVTVSS
polyreactivity (PSR sort gate): low polyreactivity

QVQLVESGGGLVQAGGSLRLSCAASGSTFTLYAMGWYRQAPGKERELVAAISGIGDSTYYADSVKGRFTISRDNAKNTVYFQMNSLKPEDTAVYYCAADGEYRYVWEYESWGQGTQVTVSS
polyreactivity (PSR sort gate): low polyreactivity

QVQLVESGGGLVQAGGSLRLSCAASGSTFTNYALGWYRQAPGKEREFVAAITFRGGRTYYADSVKGRFTISRDNAKNTVYLQMNSLKPEDTAVYYCNKRTSPKRFDYWGQGTQVTVSS
polyreactivity (PSR sort gate): high polyreactivity

QVQLVESGGGLVQAGGSLRLSCAASGSTFTNYAMGWYRQAPGKERELVAAITSGGSTYYADSVKGRFTISRDNAKNTVYLQMNSLKPEDTAVYYCNAVYFSEYDSWGQGTQVTVSS
polyreactivity (PSR sort gate): low polyreactivity

QVQLVESGGGLVQAGGSLRLSCAASGSTFTPNVMGWNRQAPGKEREYVAAINSSGGSTFYADSVKGRFTISRDTAKYTVYLQMNSLKPEDTAFYYCAASWHTPTFYDEYYYWGQGTQVTVSS
polyreactivity (PSR sort gate): low polyreactivity

QVQLVESGGGLVQAGGSLRLSCAASGSTFTPYAMGWYRQAPGKDREFVAVITRSGTRTYYADSVKGRFTISRDNAKNTVYLQMNSLKPEDTAVSYCAADRHPYNRYDYYYWGQGTQVTVSS
polyreactivity (PSR sort gate): high polyreactivity

QVQLVESGGGLVQAGGSLRLSCAASGSTFTQNTMGWYRQAPGKERELVAAISWSGTRTYYADSVKGRFTISRDNAKNTVYLQMNSLKPEDTAVYYCAARTHVPAEYDYWGQGTQVTVSS
polyreactivity (PSR sort gate): high polyreactivity

QVQLVESGGGLVQAGGSLRLSCAASGSTFTQYAMGWYRQAPAKERELFAAISWGGGTTRYADSVKGRFTISRDNAKNTVYLQMNSLKPEDTAVYYCAKRVRTGSVGNFNYWGQGTQVTVSS
polyreactivity (PSR sort gate): high polyreactivity

QVQLVESGGGLVQAGGSLRLSCAASGSTFTRNAMGWYRQAPGKERELVAAISGGGGGSTYYADSVKGRFTISRDNAKNTVYLQMNSLKPEDTAVYYCAARAGRYWAAYGYWGQGTQVTVSS
polyreactivity (PSR sort gate): high polyreactivity

QVQLVESGGGLVQAGGSLRLSCAASGSTFTRYAMGWYRQAPGKERELVAAINWSGTSTYYADSVKGRFTISRDNAKNTVYLQMNSLKPEDTAVYYCNKGYLVRPGDYWGQGTQVTVSS
polyreactivity (PSR sort gate): high polyreactivity

QVQLVESGGGLVQAGGSLRLSCAASGSTFTSYAMGWYRQAPGKERELVAAISKSGGSTYYADSVKGRFTISRDNAKKTVYFQMNSLKPEDTAVYYCAARYNVRSFSTSSFDYWGQGTQVTVSS
polyreactivity (PSR sort gate): low polyreactivity

QVQLVESGGGLVQAGGSLRLSCAASGSTFTSYAMGWYRQAPGKERELVAAITRNGGTTYYADSVKGRFTISRDNAKNTVYLQMNSLKPEDTAVYYCNAPHYYYITSDRRFDYWGQGTQVTVSS
polyreactivity (PSR sort gate): low polyreactivity

QVQLVESGGGLVQAGGSLRLSCAASGSTFTSYVMGWYRQAPGKERELVAAISSSGTRTYYADSVKGRFTISRDNAKNTVYLQMNSLKPEDTSVYYCAARGGAPYRIFKDDYWGQATQVTVSS
polyreactivity (PSR sort gate): high polyreactivity

QVQLVESGGGLVQAGGSLRLSCAASGSTFTTYAMGWYRQAPGKERELVAAISIRGGRTYYADSVKGRFTISRDNAKNTVYLQMNSLKPEDTAVYYCAAETYYAVSTGYDFDYWGQGTQVTVSS
polyreactivity (PSR sort gate): high polyreactivity

QVQLVESGGGLVQAGGSLRLSCAASGSTFTTYAMGWYRQAPGKERELVAAISKSGGSTYYADSVKGRFTISRDNAKNTVYLQMNSLKPEDTAVYYCATSFRSTARKYGYWGQGTQVTVSS
polyreactivity (PSR sort gate): high polyreactivity

QVQLVESGGGLVQAGGSLRLSCAASGSTFTTYAMGWYRQAPGKERELVAAITSGGTTNYADSVKGRFTISRDNAKNTVYLQMNSLKPEDTAVYYCAARNNVEYLTIYKPYSFGSDSWGQGTQVTVSS
polyreactivity (PSR sort gate): low polyreactivity

QVQLVESGGGLVQAGGSLRLSCAASGSTFTWNAMGWYRQAPGKERELGASISGRGGSTYYADSVKGRFTISRDNAKNTVYLQMNSLKPEDTAVYYCAARGVSYHYPSGYDYWGQGTQVTVSS
polyreactivity (PSR sort gate): high polyreactivity

QVQLVESGGGLVQAGGSLRLSCAASGSTFTWYAMGWYRQAPGKERELVAAISGSGGRTFYADSVKGRFTISRDNAKNTVYLQMNSLKPEDTAVYYCNAVRVSIPYIYTMDYWGQGTQVTVSS
polyreactivity (PSR sort gate): high polyreactivity

QVQLVESGGGLVQAGGSLRLSCAASGSTFTYNAMGWYRQAPGTERELVAAISDGDGRTYYADSVKGRFTISRDNAKNTVYLQMNSLKPEDTAVYYCAAVDYAADYPYRNTEVYYWGQGTQVTVSS
polyreactivity (PSR sort gate): low polyreactivity

QVQLVESGGGLVQAGGSLRLSCAASGSTFTYYAMGWYRQAPGKERELVAAINWDGGRTYYADSVKGRFTISRDNAKNTVYLQMNSLKPEDTAVYYCNAVGRYRSGFDYWGQGTQVTVSS
polyreactivity (PSR sort gate): high polyreactivity

QVQLVESGGGLVQAGGSLRLSCAASGSTFTYYAMGWYRQAPGKERELVAAITGRGGRTYYADSVKGRFTISRDNAKNSVYLQMNSLKREDTAVYYCNTVGLNYGYQYSNGYWGQGSQVTVSS
polyreactivity (PSR sort gate): high polyreactivity

QVQLVESGGGLVQAGGSLRLSCAASGSTFTYYAMGWYRQAPGKERELVAAITSSGSTNYADSVKGRFTISRDNAKNTVYLQMNSLKPEDTAVYYCNAVSKWAIYDYWGQGTQVTVSS
polyreactivity (PSR sort gate): high polyreactivity

QVQLVESGGGLVQAGGSLRLSCAASGSTFTYYAMGWYRQAPGKERELVAAITWSGGSTYYADSVKGRFTISRDNAKNTVYLQMNSLKPEDTAVYYCNVYSIWGTYDYWGQGTQVTVSS
polyreactivity (PSR sort gate): low polyreactivity

QVQLVESGGGLVQAGGSLRLSCAASGSTFTYYAMGWYRQAPGKERELVADIDFSGTSTYYADSVKGRFTISRDNAKNTVYLQMNSLKPEDTAVYYCATDDYNWFDYDYWGQGTQVTVSS
polyreactivity (PSR sort gate): low polyreactivity

QVQLVESGGGLVQAGGSLRLSCAASGSTFTYYTMGWYRQAPGKERELVAAISRTTGSTYYADSVKGRFTISRDNAKNTVYLQMNSLKPEDTAVYYCAADYYTRYQYGYWGQGTQVTVSS
polyreactivity (PSR sort gate): low polyreactivity

QVQLVESGGGLVQAGGSLRLSCAASGSTFVANGMGWYRQAPGKERELVAVISRNGGTTYYADSVKGRFTISRDNAKNTVYLQMNSLKPEDTAVYYCNAKLPVFHYFWMDYWGQGTQVTVSS
polyreactivity (PSR sort gate): high polyreactivity

QVQLVESGGGLVQAGGSLRLSCAASGSTFVANTMGWYRQAPGKERELGAAITSDGGSTSYADSVKGRFSISRDNAKNTVYLQMNSLKPEDTAVYHCAAEYGGSSAKYGYWGQGTQVTVSS
polyreactivity (PSR sort gate): low polyreactivity

QVQLVESGGGLVQAGGSLRLSCAASGSTFVANVMGWYRQAPGKERELVATINSTSGSTYYADSVKGRFTISRDNAKNTVYLQMNSLKPEDTAVYYCNATHEGFELDYWGQGTQVTVSS
polyreactivity (PSR sort gate): low polyreactivity

QVQLVESGGGLVQAGGSLRLSCAASGSTFVAYAMGWYRQAPGKERELVAAISASGVRTYYADSVKGRFTISRDNAKNTVYLQMNSLKPEDTAVYYCAATVFRKYRYGYWGQGTQVTVSS
polyreactivity (PSR sort gate): high polyreactivity

QVQLVESGGGLVQAGGSLRLSCAASGSTFVDNAMGWYRQAPGKERELVAAITNSGSTYYADSVKGRFTISRDNAKNTVYLQMNSHKPEDTAVYYCAARSRVYWARSGYWGQGTQVTVSS
polyreactivity (PSR sort gate): low polyreactivity

QVQLVESGGGLVQAGGSLRLSCAASGSTFVDYDMGWYRQAPGKERELVAAITYSGARTYYADSVKGRFTISRDNAKNTVYLQMNSLKPEDTAVYYCNADQRTASDQLEFDYWGQGTQVTVSS
polyreactivity (PSR sort gate): low polyreactivity

QVQLVESGGGLVQAGGSLRLSCAASGSTFVFYAMGLYRQAPGKERELVADITSGGRTSYADSVKGRFTISRDNAKNTVYLQMNSLKPEDTAVYYCAALTRWYAWYDYWGQGTQVTVSS
polyreactivity (PSR sort gate): high polyreactivity

QVQLVESGGGLVQAGGSLRLSCAASGSTFVFYAMGWYRQAPGKERELVAINSGGSTYYADSVKGRFTISRDNAKKTVYLQMNSLKPVDTAVYYCAKDRLRVWRFDYWGQGTQVTVSS
polyreactivity (PSR sort gate): low polyreactivity

QVQLVESGGGLVQAGGSLRLSCAASGSTFVFYTMGWYRQAPGKEREFVASISGSGGSTYYADSVKGRFTISRDNAKNTVYLQMNSLKPEVSAVYYCAAGYPYYYWTPYYYWGQGTQVTLSS
polyreactivity (PSR sort gate): high polyreactivity

QVQLVESGGGLVQAGGSLRLSCAASGSTFVGNAMGWYRQAPGKERELVAAITSGGSTNYADSVKGRFTISRDNAKNTVYLQMNSLKPEDTAVYYCAKRVSGSPPTAGSLSDSWGQGTQVTVSS
polyreactivity (PSR sort gate): high polyreactivity

QVQLVESGGGLVQAGGSLRLSCAASGSTFVGNVMGWYRQAPGKERELVATISRSGGRTYYADSVKGRFTISRDNAKNTVYLQMNSLKPVDTAVYYCAAGFVYTTASRWGGRTRYDYWGQGTQVTVSS
polyreactivity (PSR sort gate): high polyreactivity
